# Experiment: soluble on expression in E. coli; label from the status in PepcDB or PDB records
row,Sequence,soluble on expression in E. coli
1,MRRILVLTKNILVEQTFQQQLQHLNYEVFCTNCCEETIEHELTFFNYFDAIVLSETLSQNDCLRLLGSLSSLEKPIYRRSQSMCNKREAEIWQERGIIRWLGLKDSLEDIREKIDTVDQSFAEVTAELLDDQVKKIRFTKNEQRFLKILYQHAHEGLDRDQICRLLWQKEPDASTKSQLSFVCKRVKQKFSDAGMNEEIITTYWGKGYQINEQILPYLEQTLFETAQ,not soluble
2,MGSDKIHHHHHHMTFLRALLGATGQTLRAALAGLTVKPHSGHPVFPVTWVTPHIAAGPAPVSAAHLEALREQGIVAILNVCEELCTLADTEEAAGFEVRFLPIEDEGAPEPDALEEVLDWLDESVWRGRKVYVHCRWGVGRTGTVLHAYLLRRGLSPRRAEHFLSRLRSRPTSYTQWRSLRRFARRNPALTVREAAVEPGVADAMTPVLRDLARLVQEVERHVEAATPGISPEAFADAPRCGRDHVRCCATPPTLTLAEAAALTAAMDALLSSTQRDELRQKTSRGSGVPCPLLHDQRCLLYEARPLRCRTADMDETARLRLLEEVVADTLDDLDRRVFGLLAGCTPATSPPCFPIVEVLSGRYVATTFRHVACGLNTGKP,not soluble
3,MDRTLYQKQMLDLVKDSKLATKLENSIFKWTNDYMETNITPPFMFENFYQDKFSDIIKHLNIKNNPYLLEAIKTGKIKPENIAFLKPEEIYPEKFEAILNKRKLEKAIKDNQATTDAFKCPRCKKRKAKIDQKQIRAGDEPMTTFVTCVECGNVQKF,not soluble
4,MEQFRNIGIIGRLGSVQVLDTVRRLKRFLLDRHLHVILEETIAEVLPGHGLQTSSRKMLGEVCDMVIVVGGDGSLLGAARALARHNVPVLGINRGSLGFLTDIRPDELEVKCAEVLDGHYLVENRFLLQAEVRRHGEAIGQGDALNDVVLHPGKSTRMIEFEIYIDGQFVCSQKADGLIVATPTGSTAYALSAGGPIMHPKLDAIVIVPMYPHTLSGRPIVVDGNSELKIVVSKDMTIYPQVSCDGQNHFTCAPGDTITVSKKPQKLRLIHPLDHNYYEVCRTKLGWGSRLGGGGDLEHHHHHH,soluble
5,MAHHHHHHMGRVRHGATICSAVSDATAGKQKSACVTDVEEIPTLSFLSSKSILSETVDRTIEVCDALLNEIPKAKSIKEKHDLIDSTSNVLCLLLDPCEFVRQVHPDAEYKQHASYAFQKGYEYMSKVNSRRDLYDVVLQLDSTEGHKELSSEEIKNVAQLRRDMESNGIHLPDKLREKVTEMNIEKEELAMRFLTEQGSKNPFATLRYLLQCRYELSQLLGFESFAEQQLRGTMLENQQRVWHFLCGIAHKYRREAEKEMDIIRSNVGEVRNRQNITDDVRARVAHSLRRDAEPETAAEYFSVANCIRGIQCLCLEVFGVRLEEVQFDKDEIFNNDAKKYHVYDENKAFLGVIVLDLYASEMKYCQAGHLTLQLGCIPHQEALAKVGLKLPKRQYPVVVLTCNVGACSPVQRLPNGRFDDESTLMHPNEVTTVFHEFGHAMHTIFGQTKVQNLAGTRASIDFVETFSQLFEQFLTSHEFLQLWAHRISTREPISFDMVMKRNAAADMFKHLDMMDQVVLSAVDQTLHGPQPYTVYFPRGDQGNLGKRTLGDIGDYGRGTYNLAKVLIDICTPLSIVTPTETGVLGTLSFEHLSGYPAGYYGYLYSLSIARRIWAKKFMKDPLNRDAGRELVQKVMRHGAACNPVDVIENYLEDKLDEIDIWV,not soluble
6,MSKIIGSDRVKRGMAEMQKGGVIMDVVNAEQARIAEEAGAVAVMALERVPSDIRAAGGVARMANPKIVEEVMNAVSIPVMAKARIGHITEARVLEAMGVDYIDESEVLTPADEEYHLRKDQFTVPFVCGCRNLGEAARRIGEGAAMLRTKGEPGTGNIVEAVRHMRQVNSEVSRLTVMNDDEIMTFAKDIGAPYEILKQIKDNGRLPVVNFAAGGVATPQDAALMMELGADGVFVGSGIFKSEDPEKFAKAIVQATTHYQDYELIGRLASELGTAMKGLDINQLSLEERMQERGWMAGDPLEHHHHHH,not soluble
7,MGSDKIHHHHHHMKTHIFLYPGEGIGPELFESLRAFFSLFNDKLEYHYLASFQDLSSLNKPYYVLCGPFASEQEQTDVLNPLHPLYAHTLVPHDKKGNASILALPLTQKQTTGALKDLSVIAACFDPAHKVVMVQQYQEQPQIWEDAMKAWTKLAFSNHDWKFEDANVLSFIKHSQYSKANQVVSSMEGANVLKALYASIYKSLNRAHTLIEVEDGYITMPMHGHAPDIVGMGIANPYALLMAFCRLLTVAGYEELAQQVENQIESAFYENRDQTTPDQGGVLNTEKYMAMMVECINL,not soluble
8,MAHHHHHHMKCVVCDADKAGYRCRACRSAYCSSQCYRKHRMSREEAAAQVANINAATSSFAHLCETVVAAQRPQKELDEKRQRTEAEADVFSDVSREKVAAAGAVHGSENDAPPPSTAPAVETAWKTATGASEASGPACAEPQPSARTEYAGDSDAVYILQEKHLGALAHDPRVRSALRSPSLQKLIKTIDSSRSRLDALEAAQYNNADFKGFCDAVLRVIAEVEGR,soluble
9,MSAPINKVLIADDIEQECVDILKQNGIEVTVKTKQTKDELLVTLPQHDAVIVRSATKITAELLAASAGKLKLVGRAGTGVDNIDVPAASANKILVMNTPQANSRSAAELTCTLILSLSRHVPQAAASMKAGKWARKDFMGEEVYGRTLAVLGLGRIGSEVAVRLQAFGMKVIGFDPMVTKEQAEAKNIELLSLEQIWPQADYITVHVPLIKQTENLINKETLAKCKKGVRIINVARGGIVNEVDLVESLNAGHAKGAAFDVFEQEPPTFRELIDHPLVIATPHLGASTIDAQLRVASEIADNIVQYNKGTMLGVLNAREVLN,not soluble
10,MSLSAVKIAVILPMTGGISAFGRMVWEGIQIAHEEKPTVLGEEVELVLLDTRSEKTEAANAAARAIDKEKVLAIIGEVASAHSLAIAPIAEENKVPMVTPASTNPLVTQGRKFVSRVCFIDPFQGAAMAVFAYKNLGAKRVVVFTDVEQDYSVGLSNFFINKFTELGGQVKRVFFRSGDQDFSAQLSVAMSFNPDAIYITGYYPEIALISRQARQLGFTGYILAGDGADAPELIEIGGEAVEGLLFTTHYHPKAASNPVAKKFVEVYKEKYGKEPAALNALGYDAYMVLLDAIERAGSFDREKIAEEIRKTRNFNGASGIINIDENGDEGHHHHHH,soluble
11,MSPGSSTGMVSEKCGDAESKRAPYPPPLRLARRVCYPQYTQKSLDMRAQEKLVGRKRDMKMARFLAKQAKESKEMVKKAAKETTEKTTKNDSTV,not soluble
12,MQLKTEVFLVEKEILVYIQTKSIGIEDNSIKLKMTPLLKKFANIGDKVYLKHSTFMLPTKIKAKKEDEVLLEFPSLTPEKPLGDRRNVRVLSDPENPVKVRFNEITKEVYDISEVGFSIKCGMEEIDEILKNKEISEVEIYLPNLEEWIKGSARLVNVREFENGDILCGYELFLDTPDEVKVRFYIYERVKEILKGEK,not soluble
13,ASSGIVKMVSPTSKIEPCIVSVTYGSMTLNGLWLDDKVYCPRHVICSSSNMNEPDYSALLCRVTLGDFTIMSGRMSLTVVSYQMQGCQLVLTVSLQNPYTPKYTFGNVKPGETFTVLAAYNGRPQGAFHVTMRSSYTIKGSFLCGSCGSVGYVLTGDSVKFVYMHQLELSTGCHTGTDFTGNFYGPYRDAQVVQLPVKDYVQTVNVIAWLYAAILNNCAWFVQNDVCSTEDFNVWAMANGFSQVKADLVLDALASMTGVSIETLLAAIKRLYMGFQGRQILGSCTFEDELAPSDVYQQLAGV,soluble
14,MGSDKIHHHHHHMLPLSAEEFARLVPILRQAGLSHVTHIHELAGGLSNHNYHIQTPTTQYALRLNAEAADRFCSREQELFYWRNLAKAKLAPELIWTSCDHRYYLSAFIESQDIASLLNASQIPDMLGDWADVRGALNWKNLAYQCSAAEFTLGEQRLQTWLQAHAENFECALHQACMPQSFAAQLTPLALLESQCPNRVHSLLLQLLQRLRLQSAGPYHISVTEQWQQYHQQLLAFAATDKGSAWQTRLDLLLGLQPQIHRWTTVLADCLVAAQFCHRDLNPHNLLLKDNQLYCIDFEYATASHPLCELAVVLATHRLTPVQRHILVRQYLADHPGVTSTAITAVPAAIDMYWVFALYWALLIAAQTDAERQQEYLAWFDSFWSLVSQDA,not soluble

# — the DeepSol protein solubility set
